# Results: patent US8106020B2, “Calcium receptor activator” (Ajinomoto Co., Inc., priority 2005, dated 2012)
# Starred links: 1 amine or outer side, 2 acyl side, 3 side chain; linkers in the order of their positions; H or OH if unused. Non-standard residues stand in square brackets, D forms with d. No end group written: not given here. Cys(S-allyl) = S-allylcysteine, C=CCSC[C@H](N[*:1])C(=O)[*:2]; Cys(S-Me) = S-methylcysteine, CSC[C@H](N[*:1])C(=O)[*:2]; γGlu = O=C(O)[C@H](CCC(=O)[*:2])N[*:1]; Tau = Taurine, O=S(=O)(CCN[*:1])[*:2]; Tle = CC(C)(C)[C@H](N)C(=O)O; Orn = NCCC[C@H](N)C(=O)O; Abu = CC[C@H](N)C(=O)O
# System: Parathyroid hormone (PTH)
# Assay: Pharmacological evaluation in rats: serum PTH after intravenous injection
# Assay type: in vivo, rat
# Conditions: 15 minutes after the administration; male Sprague-Dawley rats, 100 mg/ml in saline, 0.1 ml/100 g body weight, tail vein
# Text: The pharmacological effects of the peptides were confirmed by animal study. Parathyroid hormone (PTH) is one of the major proteins which relate to calcium homeostasis. Increase in PTH is directly responsible for hyperparathyroidism and hypoparathyroidism. It is known that PTH is secreted from the parathyroid gland, and its secretion is inhibited when the calcium receptor is activated. Male, 10 weeks old, Sprague-Dawley strain rats were used. “Rat Intact PTH ELISA KIT” (Immutopics) was used for measuring PTH according to the manufacturer's recommended protocol. 100 mg/ml of γ-Glu-Val-Gly was dissolved in physiological saline, and 0.1 ml/100 g body weight for each was injected through the tail vein. Blood was collected from the vein under the right clavicle, and blood serum was obtained by centrifugation. Each group consists of 3 rats, and PTH variation is shown below as average value±standard error. The result for the peptide-administered group was: 148±72.5 pg/ml before the administration and 9.44±2.94 pg/ml 15 minutes after the administration; meanwhile, the result for the control group (physiological saline administered group) was: 89.4±49.5 pg/ml before the administration and 41.1±11.6 pg/ml 15 minutes after the administration. As a result, PTH levels decreased as a result of the administration of the peptides.
row,Compound,"PTH in blood serum, average value±standard error [pg/mL]"
1,γ-Glu-Val-Gly ([γGlu]-Val-Gly),9.44 ± 2.94

# Same assay, conditions: before the administration; male Sprague-Dawley rats, 100 mg/ml in saline, 0.1 ml/100 g body weight, tail vein
row,Compound,"PTH in blood serum, average value±standard error [pg/mL]"
1,γ-Glu-Val-Gly ([γGlu]-Val-Gly),148 ± 72.5

# Target: T1, human calcium receptor (Homo sapiens, UniProt P41180)
# T1 construct: expressed in transfected cells; host or cells: Xenopus laevis oocytes microinjected with cRNA; gene amplified by PCR from human kidney cDNA (Clontech) and cloned in pBR322
# T1 sequence (P41180 20-1078): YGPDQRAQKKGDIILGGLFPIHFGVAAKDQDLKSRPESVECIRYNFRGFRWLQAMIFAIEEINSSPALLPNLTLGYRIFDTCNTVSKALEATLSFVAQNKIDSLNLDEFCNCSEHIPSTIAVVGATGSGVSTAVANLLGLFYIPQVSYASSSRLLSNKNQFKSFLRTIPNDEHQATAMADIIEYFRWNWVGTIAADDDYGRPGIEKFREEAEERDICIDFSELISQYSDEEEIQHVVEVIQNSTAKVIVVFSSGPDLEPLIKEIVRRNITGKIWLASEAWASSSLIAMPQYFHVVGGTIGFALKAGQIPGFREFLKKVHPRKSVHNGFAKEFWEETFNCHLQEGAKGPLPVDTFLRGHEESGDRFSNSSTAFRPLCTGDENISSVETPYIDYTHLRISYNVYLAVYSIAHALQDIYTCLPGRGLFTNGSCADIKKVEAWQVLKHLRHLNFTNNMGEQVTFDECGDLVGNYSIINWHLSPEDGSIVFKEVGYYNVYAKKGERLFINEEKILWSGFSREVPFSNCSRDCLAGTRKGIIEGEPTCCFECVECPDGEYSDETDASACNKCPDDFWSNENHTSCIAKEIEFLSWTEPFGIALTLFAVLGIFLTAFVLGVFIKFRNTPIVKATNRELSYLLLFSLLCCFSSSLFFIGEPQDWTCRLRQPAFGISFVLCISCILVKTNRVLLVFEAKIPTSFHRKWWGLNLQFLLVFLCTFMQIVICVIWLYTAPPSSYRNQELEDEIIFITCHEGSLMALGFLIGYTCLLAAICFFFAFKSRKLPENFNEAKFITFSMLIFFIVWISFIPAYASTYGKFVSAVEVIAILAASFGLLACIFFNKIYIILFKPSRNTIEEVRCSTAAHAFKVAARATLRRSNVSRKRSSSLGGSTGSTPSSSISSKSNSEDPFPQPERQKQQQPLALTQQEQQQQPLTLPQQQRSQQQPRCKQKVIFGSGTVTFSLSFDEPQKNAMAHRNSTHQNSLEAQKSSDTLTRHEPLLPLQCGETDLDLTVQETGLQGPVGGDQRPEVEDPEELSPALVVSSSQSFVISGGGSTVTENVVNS
# Assay: Calcium receptor activation activity: Ca ion concentration-dependent Cl ionic current in Xenopus laevis oocyte expression system
# Assay type: cell-based
# Conditions: Ca ion concentration-dependent Cl response current; peptides added at 1000 to 0.1 μM; oocytes voltage-clamped at −70 mV
# Procedure: To evaluate calcium receptor activation activity, a Ca ion concentration-dependent Cl ionic current measuring method using a Xenopus laevis oocyte expression system was used. If each activator is added to Xenopus laevis oocytes expressing the calcium receptor, intracellular Ca ions increase. Then, the Ca ion concentration-dependent Cl channel opens, and the intracellular current value changes as an ionic current. By measuring the change in this intracellular current value, the presence or absence of calcium receptor activation activity can be determined.
# Specifically, the abdomen of Xenopus laevis was opened, and an egg batch was taken out and treated with a 1% collagenase solution at 20° C. for 2 hours to obtain individual oocytes. Into the oocytes, 50 nl of 1 μg/μl receptor cRNA or 50 nl of sterilized water per oocyte was introduced by using a micro glass capillary, and the oocytes were cultured at 18° C. for 2 or 3 days. For the culture, a solution obtained by adding 2 mM pyruvic acid, 10 U/ml of penicillin, and 10 μg/ml of streptomycin to the solution in Example 2 was used. After the culture, a test solution was added to the oocytes containing either the cRNA or sterilized water. Electrophysiological measurement was performed by using an amplifier, Geneclamp500 (Axon), and recording software, AxoScope 9.0 (Axon). The oocytes were voltage-clamped at −70 mV by the double electrode voltage clamp method, and the intracellular current was measured via the Ca ion concentration-dependent Cl ion channel. The maximum value of the intracellular current was considered as the response current value.
# Calcium receptor activation activity of L-amino acids was evaluated by using the method described in Example 6. That is, oocytes containing either cRNA of the calcium receptor or sterilized water were prepared, and voltage-clamped at −70 mV by the double electrode voltage clamp method. To the voltage-clamped oocytes, alanine (10 mM), arginine (10 mM), asparagine (10 mM), aspartic acid (10 mM), cysteine (10 mM), glutamine (10 mM), glutamic acid (10 mM), glycine (10 mM), histidine (10 mM), isoleucine (10 mM), leucine (10 mM), lysine (10 mM), methionine (10 mM), phenylalanine (10 mM), proline (10 mM), serine (10 mM), threonine (10 mM), tryptophan (10 mM), tyrosine (10 mM), valine (10 mM), ornithine (10 mM), taurine (10 mM), or hydroxyproline (10 mM) was added, and Ca ion concentration-dependent Cl response current was measured. […] As for the aforementioned amino acids, the activation activity was reported in Proc. Natl. Acad. Sci. USA, 2000 Apr. 25, 97(9):4814-9.
# Calcium receptor activation activity of D-cysteine was evaluated by using the method described in Example 6. That is, oocytes containing either cRNA of the calcium receptor or sterilized water were prepared, and voltage-clamped at −70 mV by the double electrode voltage clamp method. To the voltage-clamped oocytes, D-cysteine (10 mM), L-cysteine (10 mM), D-tryptophan (10 mM), or L-tryptophan (10 mM) was added, and Ca ion concentration-dependent Cl response current was measured.
# Calcium receptor activation activity of peptides was evaluated by using the method described in Example 6. That is, oocytes containing either cRNA of the calcium receptor or sterilized water were prepared, and voltage-clamped at −70 mV by the double electrode voltage clamp method.
# Calcium receptor activation activity of peptides was evaluated in the same manner as that of Example 10. Each of the peptides shown in Table 2 was added to voltage-clamped oocytes at 1000 μM, 300 μM, 100 μM, 30 μM, 10 μM, 3 μM, 1 μM, 0.3 μM, and 0.1 μM, and Ca ion concentration-dependent Cl response current was measured.
row,Compound,Activity (lowest concentration for which current was detected) [µM]
1,γ-Glu-Val-Phe ([γGlu]-Val-Phe),30
2,γ-Glu-Gly-Gly ([γGlu]-Gly-Gly),30
3,γ-Glu-Val-Gln ([γGlu]-Val-Gln),10
4,γ-Glu-Abu-Gly ([γGlu]-[Abu]-Gly),3
5,γ-Glu-Val-Arg ([γGlu]-Val-Arg),1000
6,γ-Glu-γ-Glu-Val ([γGlu]-[γGlu]-Val),1000
7,γ-Glu-Cys(S-Me)-Gly ([γGlu]-[Cys(S-Me)]-Gly),3
8,γ-Glu-Val-Pro ([γGlu]-Val-Pro),30
9,γ-Glu-Val-Thr ([γGlu]-Val-Thr),1000
10,γ-Glu-Val-Gly ([γGlu]-Val-Gly),0.1
11,γ-Glu-Tau ([γGlu]-[Tau]),300
12,γ-Glu-Val-Orn ([γGlu]-Val-[Orn]),100
13,γ-Glu-Val-Val ([γGlu]-Val-Val),1000
14,γ-Glu-Val-Cys ([γGlu]-Val-Cys),10
15,γ-Glu-Val-Met ([γGlu]-Val-Met),1000
16,γ-Glu-Val-Asp,1000
17,γ-Glu-Val-His ([γGlu]-Val-His),100
18,γ-Glu-Val-Lys ([γGlu]-Val-Lys),1000
19,γ-Glu-Val-Glu ([γGlu]-Val-Glu),1000
20,γ-Glu-Val-Ser ([γGlu]-Val-Ser),30
21,γ-Glu-t-Leu ([γGlu]-[Tle]),100
22,γ-Glu-Val-Asn ([γGlu]-Val-Asn),30
23,γ-Glu-Ser-Gly ([γGlu]-Ser-Gly),30
24,γ-Glu-Cys(S-allyl)-Gly ([γGlu]-[Cys(S-allyl)]-Gly),100

# Same assay, conditions: D-amino acid 10 mM; FIG. 3
row,Compound,calcium receptor activation activity (Cl response current)
1,N[C@H](CS)C(=O)O [D-cysteine],definitive calcium receptor activation activity

# Same assay, conditions: L-amino acid 10 mM; FIG. 2
row,Compound,calcium receptor activation activity (Cl response current)
1,"N[C@@H](Cc1c[nH]c2ccccc12)C(=O)O [tryptophan, reference compound]",definite calcium receptor activation activity
2,"N[C@@H](Cc1ccc(O)cc1)C(=O)O [tyrosine, reference compound]",definite calcium receptor activation activity
3,"N[C@@H](Cc1ccccc1)C(=O)O [phenylalanine, reference compound]",definite calcium receptor activation activity
4,"N[C@@H](Cc1c[nH]cn1)C(=O)O [histidine, reference compound]",definite calcium receptor activation activity
5,"N[C@@H](CS)C(=O)O [cysteine, reference compound]",definite calcium receptor activation activity

# Same assay, conditions: peptide 50 μM; FIG. 4
row,Compound,calcium receptor activation activity (Cl response current)
1,N[C@@H](CCC(=O)N[C@@H](CSN=O)C(=O)NCC(=O)O)C(=O)O [γ-Glu-Cys(SNO)-Gly],definitive calcium receptor activation activity
2,N[C@@H](CCC(=O)N[C@@H](CS)C(=O)NCC(=O)O)C(=O)O [γ-Glu-Cys-Gly],definitive calcium receptor activation activity

# Same assay, conditions: peptide 500 μM; FIG. 4
row,Compound,calcium receptor activation activity (Cl response current)
1,γ-Glu-Orn ([γGlu]-[Orn]),definitive calcium receptor activation activity
